B1: MTMR15 (parent)
chain: YVKAKKSIDKDEEFAGSSPQSSKS
B2: RSPH3 (parent)
chain: VDVQTELYLEEIADRIIEVDMECQ

Variants of: B1
Experiment: protein stability index of a GFP-peptide fusion (GPS, HEK-293T) (PSI 1-6); higher = more stable
Settings: c terminus: a fixed tail appended
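Note: lentivirally expressed fusions sorted by FACS into six bins by GFP to DsRed ratio, PSI derived from sequencing read proportions per bin multiplied by bin number.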

Variant | protein stability index
NVKAKKSIDKDEEFAGSSPQSSKS | 5.4
DVKAKKSIDKDEEFAGSSPQSSKS | 5.62
WVKAKKSIDKDEEFAGSSPQSSKS | 4.66
CVKAKKSIDKDEEFAGSSPQSSKS | 5.51
SVKAKKSIDKDEEFAGSSPQSSKS | 5.49
QVKAKKSIDKDEEFAGSSPQSSKS | 5.48
LVKAKKSIDKDEEFAGSSPQSSKS | 5.14
FVKAKKSIDKDEEFAGSSPQSSKS | 2.79
VVKAKKSIDKDEEFAGSSPQSSKS | 5.29
HVKAKKSIDKDEEFAGSSPQSSKS | 5.11
RVKAKKSIDKDEEFAGSSPQSSKS | 5.62
IVKAKKSIDKDEEFAGSSPQSSKS | 5.52
AVKAKKSIDKDEEFAGSSPQSSKS | 5.37
PVKAKKSIDKDEEFAGSSPQSSKS | 5.19
TVKAKKSIDKDEEFAGSSPQSSKS | 5.69
GVKAKKSIDKDEEFAGSSPQSSKS | 5.7
EVKAKKSIDKDEEFAGSSPQSSKS | 5.82
MVKAKKSIDKDEEFAGSSPQSSKS | 5.01
KVKAKKSIDKDEEFAGSSPQSSKS | 5.15
YCKAKKSIDKDEEFAGSSPQSSKS | 4.52
YYKAKKSIDKDEEFAGSSPQSSKS | 5.39
YTKAKKSIDKDEEFAGSSPQSSKS | 5.08
YMKAKKSIDKDEEFAGSSPQSSKS | 4.91
YIKAKKSIDKDEEFAGSSPQSSKS | 4.23
YDKAKKSIDKDEEFAGSSPQSSKS | 5.5

Variant | protein stability index
YRKAKKSIDKDEEFAGSSPQSSKS | 5.42
YAKAKKSIDKDEEFAGSSPQSSKS | 5.13
YFKAKKSIDKDEEFAGSSPQSSKS | 4.74
YEKAKKSIDKDEEFAGSSPQSSKS | 5.56
YGKAKKSIDKDEEFAGSSPQSSKS | 5.2
YPKAKKSIDKDEEFAGSSPQSSKS | 4.76
YQKAKKSIDKDEEFAGSSPQSSKS | 5.09
YSKAKKSIDKDEEFAGSSPQSSKS | 5.38
YHKAKKSIDKDEEFAGSSPQSSKS | 4.49
YKKAKKSIDKDEEFAGSSPQSSKS | 5.26
YLKAKKSIDKDEEFAGSSPQSSKS | 4.84
YWKAKKSIDKDEEFAGSSPQSSKS | 4.5
YNKAKKSIDKDEEFAGSSPQSSKS | 5.16
YVGAKKSIDKDEEFAGSSPQSSKS | 2.27
YVPAKKSIDKDEEFAGSSPQSSKS | 2.04
YVDAKKSIDKDEEFAGSSPQSSKS | 3.96
YVHAKKSIDKDEEFAGSSPQSSKS | 3.22
YVAAKKSIDKDEEFAGSSPQSSKS | 2.87
YVVAKKSIDKDEEFAGSSPQSSKS | 3.85
YVYAKKSIDKDEEFAGSSPQSSKS | 2.61
YVNAKKSIDKDEEFAGSSPQSSKS | 3.52
YVRAKKSIDKDEEFAGSSPQSSKS | 2.4
YVIAKKSIDKDEEFAGSSPQSSKS | 3.38
YVCAKKSIDKDEEFAGSSPQSSKS | 3.3
YVWAKKSIDKDEEFAGSSPQSSKS | 3.1

Variant | protein stability index
YVSAKKSIDKDEEFAGSSPQSSKS | 2.76
YVMAKKSIDKDEEFAGSSPQSSKS | 3.28
YVLAKKSIDKDEEFAGSSPQSSKS | 3.05
YVTAKKSIDKDEEFAGSSPQSSKS | 2.84
YVFAKKSIDKDEEFAGSSPQSSKS | 3.3
YVEAKKSIDKDEEFAGSSPQSSKS | 3.48
YVQAKKSIDKDEEFAGSSPQSSKS | 3.31
YVKCKKSIDKDEEFAGSSPQSSKS | 2.97
YVKKKKSIDKDEEFAGSSPQSSKS | 4.12
YVKIKKSIDKDEEFAGSSPQSSKS | 3.24
YVKVKKSIDKDEEFAGSSPQSSKS | 3.08
YVKLKKSIDKDEEFAGSSPQSSKS | 3.04
YVKPKKSIDKDEEFAGSSPQSSKS | 3.19
YVKFKKSIDKDEEFAGSSPQSSKS | 2.89
YVKEKKSIDKDEEFAGSSPQSSKS | 3.54
YVKDKKSIDKDEEFAGSSPQSSKS | 3.27
YVKQKKSIDKDEEFAGSSPQSSKS | 3.41
YVKTKKSIDKDEEFAGSSPQSSKS | 2.39
YVKGKKSIDKDEEFAGSSPQSSKS | 3.42
YVKSKKSIDKDEEFAGSSPQSSKS | 2.45
YVKHKKSIDKDEEFAGSSPQSSKS | 3.51
YVKRKKSIDKDEEFAGSSPQSSKS | 3.32
YVKMKKSIDKDEEFAGSSPQSSKS | 3.31
YVKNKKSIDKDEEFAGSSPQSSKS | 2.99

Variants of: B2
Experiment: as above
Settings: c terminus: a fixed tail appended

Variant | protein stability index
VDVQTELYLEEIADRIIEVGMECQ | 1.85
VDVQTELYLEEIADRIIEVAMECQ | 2.54
VDVQTELYLEEIADRIIEVFMECQ | 3.1
VDVQTELYLEEIADRIIEVSMECQ | 1.65
VDVQTELYLEEIADRIIEVYMECQ | 4.28
VDVQTELYLEEIADRIIEVLMECQ | 4.62
VDVQTELYLEEIADRIIEVRMECQ | 1.15
VDVQTELYLEEIADRIIEVEMECQ | 1.71
VDVQTELYLEEIADRIIEVPMECQ | 3.46
VDVQTELYLEEIADRIIEVVMECQ | 2.51
VDVQTELYLEEIADRIIEVHMECQ | 2.46
VDVQTELYLEEIADRIIEVNMECQ | 1.82
VDVQTELYLEEIADRIIEVIMECQ | 3.01
VDVQTELYLEEIADRIIEVQMECQ | 3.34
VDVQTELYLEEIADRIIEVTMECQ | 3.29
VDVQTELYLEEIADRIIEVKMECQ | 2.24
VDVQTELYLEEIADRIIEVDMYCQ | 2.82
VDVQTELYLEEIADRIIEVDMCCQ | 1.89
VDVQTELYLEEIADRIIEVDMQCQ | 2.01
VDVQTELYLEEIADRIIEVDMKCQ | 2.27
VDVQTELYLEEIADRIIEVDMVCQ | 1.57
VDVQTELYLEEIADRIIEVDMNCQ | 2.86
VDVQTELYLEEIADRIIEVDMDCQ | 2.77

Variant | protein stability index
VDVQTELYLEEIADRIIEVDMHCQ | 2.06
VDVQTELYLEEIADRIIEVDMRCQ | 2.03
VDVQTELYLEEIADRIIEVDMLCQ | 2.53
VDVQTELYLEEIADRIIEVDMTCQ | 2.17
VDVQTELYLEEIADRIIEVDMICQ | 2.81
VDVQTELYLEEIADRIIEVDMSCQ | 2.22
VDVQTELYLEEIADRIIEVDMFCQ | 1.9
VDVQTELYLEEIADRIIEVDMACQ | 1.99
VDVQTELYLEEIADRIIEVDMPCQ | 2.88
VDVQTELYLEEIADRIIEVDMMCQ | 2.83
VDVQTELYLEEIADRIIEVDMGCQ | 3.05
VDVQTELYLEEIADRIIEVDFECQ | 1.47
VDVQTELYLEEIADRIIEVDWECQ | 1.76
VDVQTELYLEEIADRIIEVDVECQ | 1.99
VDVQTELYLEEIADRIIEVDQECQ | 2.49
VDVQTELYLEEIADRIIEVDTECQ | 3.43
VDVQTELYLEEIADRIIEVDAECQ | 3.23
VDVQTELYLEEIADRIIEVDLECQ | 1.66
VDVQTELYLEEIADRIIEVDNECQ | 2.99
VDVQTELYLEEIADRIIEVDDECQ | 4.54
VDVQTELYLEEIADRIIEVDHECQ | 3.59
VDVQTELYLEEIADRIIEVDPECQ | 4.45
VDVQTELYLEEIADRIIEVDSECQ | 3.85

Variant | protein stability index
VDVQTELYLEEIADRIIEVDCECQ | 2.38
VDVQTELYLEEIADRIIEVDRECQ | 3.8
VDVQTELYLEEIADRIIEVDYECQ | 1.94
VDVQTELYLEEIADRIIEVDIECQ | 1.91
VDVQTELYLEEIADRIIEVDGECQ | 4.38
VDVQTELYLEEIADRIIEVDEECQ | 3.85
VDVQTELYLEEIADRIIEVDKECQ | 2.27
VDVQTELYLEEIADRIITVDMECQ | 2.23
VDVQTELYLEEIADRIIVVDMECQ | 2.85
VDVQTELYLEEIADRIIYVDMECQ | 2.03
VDVQTELYLEEIADRIIWVDMECQ | 2.23
VDVQTELYLEEIADRIIEVDMENQ | 3.87
VDVQTELYLEEIADRIIEVDMEPQ | 4.06
VDVQTELYLEEIADRIIEVDMETQ | 3.68
VDVQTELYLEEIADRIIEVDMEMQ | 2.34
VDVQTELYLEEIADRIIEVDMEAQ | 3.46
VDVQTELYLEEIADRIIEVDMEQQ | 4.31
VDVQTELYLEEIADRIIEVDMEYQ | 2.71
VDVQTELYLEEIADRIIEVDMEGQ | 3.72
VDVQTELYLEEIADRIIEVDMELQ | 3.52
VDVQTELYLEEIADRIIEVDMESQ | 3.85
VDVQTELYLEEIADRIIEVDMEWQ | 1.88
VDVQTELYLEEIADRIIEVDMERQ | 3.46

Variant | protein stability index
VDVQTELYLEEIADRIIEVDMEDQ | 4.4
VDVQTELYLEEIADRIIEVDMEFQ | 2.07
VDVQTELYLEEIADRIIEVDMEVQ | 5.09
VDVQTELYLEEIADRIIEVDMEHQ | 4.03
VDVQTELYLEEIADRIIEVDMEEQ | 4.22
VDVQTELYLEEIADRIIEVDMEIQ | 2.23
VDVQTELYLEEIADRIIEVDMEKQ | 4.46
VDVQTELYLEEIADRIIEVDMECE | 2.31
VDVQTELYLEEIADRIIEVDMECR | 2.52
VDVQTELYLEEIADRIIEVDMECM | 1.59
VDVQTELYLEEIADRIIEVDMECN | 2.05
VDVQTELYLEEIADRIIEVDMECH | 2.52
VDVQTELYLEEIADRIIEVDMECF | 1.14
VDVQTELYLEEIADRIIEVDMECY | 2.69
VDVQTELYLEEIADRIIEVDMECV | 1.84
VDVQTELYLEEIADRIIEVDMECW | 1.5
VDVQTELYLEEIADRIIEVDMECL | 1.33
VDVQTELYLEEIADRIIEVDMECP | 3.33
VDVQTELYLEEIADRIIEVDMECC | 2.32
VDVQTELYLEEIADRIIEVDMECS | 2.72
VDVQTELYLEEIADRIIEVDMECG | 2.79
VDVQTELYLEEIADRIIEVDMECA | 1.95
VDVQTELYLEEIADRIIEVDMECD | 2.82

Variant | protein stability index
VDVQTELYLEEIADRIIEVDMECI | 2.32
VDVQTELYLEEIADRIIEVDMECK | 2.12
VDVQTELYLEEIADRIIEVDMECT | 3.69
VDVQTELYLEEIADRIIEGDMECQ | 4.16
VDVQTELYLEEIADRIIESDMECQ | 4.1
VDVQTELYLEEIADRIIEYDMECQ | 2.58
VDVQTELYLEEIADRIIEMDMECQ | 2.79
VDVQTELYLEEIADRIIECDMECQ | 1.89
VDVQTELYLEEIADRIIEDDMECQ | 5.01
VDVQTELYLEEIADRIIEQDMECQ | 3.76
VDVQTELYLEEIADRIIEFDMECQ | 2.3
VDVQTELYLEEIADRIIEPDMECQ | 4.3
VDVQTELYLEEIADRIIEWDMECQ | 2.28
VDVQTELYLEEIADRIIEKDMECQ | 4.5
VDVQTELYLEEIADRIIEIDMECQ | 2.36
VDVQTELYLEEIADRIIELDMECQ | 1.59
VDVQTELYLEEIADRIIETDMECQ | 3.95
VDVQTELYLEEIADRIIEHDMECQ | 3.55
VDVQTELYLEEIADRIIERDMECQ | 4.23
VDVQTELYLEEIADRIIEADMECQ | 3.81
VDVQTELYLEEIADRIIEEDMECQ | 4.65
VDVQTELYLEEIADRIIENDMECQ | 4.1

Source: the supplement of paper PMC10567573
